# Patent US20240270846A1 (published 2024)
# Biological target: T1, CD3 epsilon homodimer protein (UniProt P07766 23-126)
# T1 construct: construct not described; homodimer as printed; also called CD3 (CD3 epsilon)
# Assay: SPR Biacore T200, CD3 epsilon homodimer immobilized; vs unaltered GLS3000;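 also: antibody variants flowed as analyte over CD3 epsilon homodimer amine-coupled to a CM4 chip, at 25 °C in HBS-EP+ running buffer, fitted with Biacore T200 Evaluation Software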
# T1 sequence (P07766 23-126): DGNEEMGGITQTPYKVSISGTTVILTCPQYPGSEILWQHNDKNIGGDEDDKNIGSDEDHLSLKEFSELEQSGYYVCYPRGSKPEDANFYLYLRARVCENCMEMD
row,Binder,KD ratio to GLS3000 (Affinity up)
1,"GLS3000 S25V (Kabat) L chain altered form, one-arm antibody with CE115HA000 (antibody, human IgG1, kappa, L234A L235A, N297A, name in Kabat numbering, one-arm antibody) heavy: QVQLVESGGGVVQPGRSLRLSCAASGFTFSNAWMHWVRQAPGKGLEWVAQIKAKSNNYATYYAESVKGRFTISRDDSKNSLYLQMNSLKTEDTAVYYCRYVHYGAYYGVDAWGQGTTVTVSSASTKGPSVFPLAPSSKSTSGGTAALGCLVKDYFPEPVTVSWNSGALTSGVHTFPAVLQSSGLYSLSSVVTVPSSSLGTQTYICNVNHKPSNTKVDKKVEPKSCDKTHTCPPCPAPEAAGGPSVFLFPPKPKDTLMISRTPEVTCVVVDVSHEDPEVKFNWYVDGVEVHNAKTKPREEQYASTYRVVSVLTVLHQDWLNGKEYKCKVSNKALPAPIEKTISKAKGQPREPQVYTLPPSRCELTKNQVSLSCAVKGFYPSDIAVEWESNGQPENNYKTTPPVLDSDGSFFLVSKLTVDKSRWQQGNVFSCSVMHEALHNHYTQKSLSLSPDYKDDDDK EPKSSDKTHTCPPCPAPELLGGPSVFLFPPKPKDTLMISRTPEVTCVVVDVSHEDPEVKFNWYVDGVEVHNAKTKPREEQYNSTYRVVSVLTVLHQDWLNGKEYKCKVSNKALPAPIEKTISKAKGQPREPQVCTLPPSRDELTKNQVSLWCLVKGFYPSDIAVEWESNGQPENNYKTTPPVLDSDGSFFLYSKLTVDKSRWQQGNVFSCSVMHEALHNRYTQKSLSLSP light: DIVMTQSPLSLPVTPGEPASISCRVSQSLVHSNRNTYLHWYQQKPGQAPRLLIYKVSNRFSGVPDRFSGSGSGTDFTLKISRVEAEDVGVYYCGQGTQVPYTFGQGTKLEIKRTVAAPSVFIFPPSDEQLKSGTASVVCLLNNFYPREAKVQWKVDNALQSGNSQESVTEQDSKDSTYSLSSTLTLSKADYEKHKVYACEVTHQGLSSPVTKSFNRGEC",0.74
2,"GLS3000 S26D (Kabat) L chain altered form, one-arm antibody with CE115HA000 (antibody, human IgG1, kappa, L234A L235A, N297A, name in Kabat numbering, one-arm antibody) heavy: QVQLVESGGGVVQPGRSLRLSCAASGFTFSNAWMHWVRQAPGKGLEWVAQIKAKSNNYATYYAESVKGRFTISRDDSKNSLYLQMNSLKTEDTAVYYCRYVHYGAYYGVDAWGQGTTVTVSSASTKGPSVFPLAPSSKSTSGGTAALGCLVKDYFPEPVTVSWNSGALTSGVHTFPAVLQSSGLYSLSSVVTVPSSSLGTQTYICNVNHKPSNTKVDKKVEPKSCDKTHTCPPCPAPEAAGGPSVFLFPPKPKDTLMISRTPEVTCVVVDVSHEDPEVKFNWYVDGVEVHNAKTKPREEQYASTYRVVSVLTVLHQDWLNGKEYKCKVSNKALPAPIEKTISKAKGQPREPQVYTLPPSRCELTKNQVSLSCAVKGFYPSDIAVEWESNGQPENNYKTTPPVLDSDGSFFLVSKLTVDKSRWQQGNVFSCSVMHEALHNHYTQKSLSLSPDYKDDDDK EPKSSDKTHTCPPCPAPELLGGPSVFLFPPKPKDTLMISRTPEVTCVVVDVSHEDPEVKFNWYVDGVEVHNAKTKPREEQYNSTYRVVSVLTVLHQDWLNGKEYKCKVSNKALPAPIEKTISKAKGQPREPQVCTLPPSRDELTKNQVSLWCLVKGFYPSDIAVEWESNGQPENNYKTTPPVLDSDGSFFLYSKLTVDKSRWQQGNVFSCSVMHEALHNRYTQKSLSLSP light: DIVMTQSPLSLPVTPGEPASISCRSDQSLVHSNRNTYLHWYQQKPGQAPRLLIYKVSNRFSGVPDRFSGSGSGTDFTLKISRVEAEDVGVYYCGQGTQVPYTFGQGTKLEIKRTVAAPSVFIFPPSDEQLKSGTASVVCLLNNFYPREAKVQWKVDNALQSGNSQESVTEQDSKDSTYSLSSTLTLSKADYEKHKVYACEVTHQGLSSPVTKSFNRGEC",1.06

# The next lines start with the values.
row,KD ratio to GLS3000 (Affinity up),Binder
1,0.67,"GLS3000 S26P (Kabat) L chain altered form, one-arm antibody with CE115HA000 (antibody, human IgG1, kappa, L234A L235A, N297A, name in Kabat numbering, one-arm antibody) heavy: QVQLVESGGGVVQPGRSLRLSCAASGFTFSNAWMHWVRQAPGKGLEWVAQIKAKSNNYATYYAESVKGRFTISRDDSKNSLYLQMNSLKTEDTAVYYCRYVHYGAYYGVDAWGQGTTVTVSSASTKGPSVFPLAPSSKSTSGGTAALGCLVKDYFPEPVTVSWNSGALTSGVHTFPAVLQSSGLYSLSSVVTVPSSSLGTQTYICNVNHKPSNTKVDKKVEPKSCDKTHTCPPCPAPEAAGGPSVFLFPPKPKDTLMISRTPEVTCVVVDVSHEDPEVKFNWYVDGVEVHNAKTKPREEQYASTYRVVSVLTVLHQDWLNGKEYKCKVSNKALPAPIEKTISKAKGQPREPQVYTLPPSRCELTKNQVSLSCAVKGFYPSDIAVEWESNGQPENNYKTTPPVLDSDGSFFLVSKLTVDKSRWQQGNVFSCSVMHEALHNHYTQKSLSLSPDYKDDDDK EPKSSDKTHTCPPCPAPELLGGPSVFLFPPKPKDTLMISRTPEVTCVVVDVSHEDPEVKFNWYVDGVEVHNAKTKPREEQYNSTYRVVSVLTVLHQDWLNGKEYKCKVSNKALPAPIEKTISKAKGQPREPQVCTLPPSRDELTKNQVSLWCLVKGFYPSDIAVEWESNGQPENNYKTTPPVLDSDGSFFLYSKLTVDKSRWQQGNVFSCSVMHEALHNRYTQKSLSLSP light: DIVMTQSPLSLPVTPGEPASISCRSPQSLVHSNRNTYLHWYQQKPGQAPRLLIYKVSNRFSGVPDRFSGSGSGTDFTLKISRVEAEDVGVYYCGQGTQVPYTFGQGTKLEIKRTVAAPSVFIFPPSDEQLKSGTASVVCLLNNFYPREAKVQWKVDNALQSGNSQESVTEQDSKDSTYSLSSTLTLSKADYEKHKVYACEVTHQGLSSPVTKSFNRGEC"
2,0.9,"GLS3000 S26E (Kabat) L chain altered form, one-arm antibody with CE115HA000 (antibody, human IgG1, kappa, L234A L235A, N297A, name in Kabat numbering, one-arm antibody) heavy: QVQLVESGGGVVQPGRSLRLSCAASGFTFSNAWMHWVRQAPGKGLEWVAQIKAKSNNYATYYAESVKGRFTISRDDSKNSLYLQMNSLKTEDTAVYYCRYVHYGAYYGVDAWGQGTTVTVSSASTKGPSVFPLAPSSKSTSGGTAALGCLVKDYFPEPVTVSWNSGALTSGVHTFPAVLQSSGLYSLSSVVTVPSSSLGTQTYICNVNHKPSNTKVDKKVEPKSCDKTHTCPPCPAPEAAGGPSVFLFPPKPKDTLMISRTPEVTCVVVDVSHEDPEVKFNWYVDGVEVHNAKTKPREEQYASTYRVVSVLTVLHQDWLNGKEYKCKVSNKALPAPIEKTISKAKGQPREPQVYTLPPSRCELTKNQVSLSCAVKGFYPSDIAVEWESNGQPENNYKTTPPVLDSDGSFFLVSKLTVDKSRWQQGNVFSCSVMHEALHNHYTQKSLSLSPDYKDDDDK EPKSSDKTHTCPPCPAPELLGGPSVFLFPPKPKDTLMISRTPEVTCVVVDVSHEDPEVKFNWYVDGVEVHNAKTKPREEQYNSTYRVVSVLTVLHQDWLNGKEYKCKVSNKALPAPIEKTISKAKGQPREPQVCTLPPSRDELTKNQVSLWCLVKGFYPSDIAVEWESNGQPENNYKTTPPVLDSDGSFFLYSKLTVDKSRWQQGNVFSCSVMHEALHNRYTQKSLSLSP light: DIVMTQSPLSLPVTPGEPASISCRSEQSLVHSNRNTYLHWYQQKPGQAPRLLIYKVSNRFSGVPDRFSGSGSGTDFTLKISRVEAEDVGVYYCGQGTQVPYTFGQGTKLEIKRTVAAPSVFIFPPSDEQLKSGTASVVCLLNNFYPREAKVQWKVDNALQSGNSQESVTEQDSKDSTYSLSSTLTLSKADYEKHKVYACEVTHQGLSSPVTKSFNRGEC"
